{"source": "paper PMC10220053", "about": "“Molecular basis for Eaf3-mediated assembly of Rpd3S and NuA4” (Cell Discovery, 2023)", "binders": {"B1": {"name": "Rco1^PHD1–SID (aa 240–376) (domain or fragment, S. cerevisiae, UniProt Q04779 240-376, looked up)", "chain": "SNASEKIFRDKNNSTIDFENEDFCSACNQSGSFLCCDTCPKSFHFLCLDPPIDPNNLPKGDWHCNECKFKIFINNSMATLKKIESNFIKQNNNVKIFAKLLFNIDSHNPKQFQLPNYIKETFPAVKTGSRGQYSDEN", "notes": "also called Rco1^SID1–PHD"}, "B2": {"name": "SUMO–Eaf7^108–143 (domain or fragment, S. cerevisiae, UniProt P53911 108-143, looked up)", "chain": "EETLLELNNRIRVRKQDFTLPWEEYGELILENARKS"}, "B3": {"name": "H3K4me0^1–12 peptide (peptide, UniProt P61830 2-13, looked up)", "peptide": "ARTKQTARKSTG", "notes": "Histone H3, residues 1–12, Lys4 unmodified; also called H3K4me0 peptide; unmodified H3K4"}}, "key": {"[1]": {"biological_target": "T1, C-terminal MRG domain of Eaf3 (Eaf3^MRG, aa 218–401) (S. cerevisiae, UniProt Q12432 218-401)", "T1 construct": "Eaf3, S. cerevisiae, C-terminal MRG domain, aa 218–401", "T1 sequence (looked up)": "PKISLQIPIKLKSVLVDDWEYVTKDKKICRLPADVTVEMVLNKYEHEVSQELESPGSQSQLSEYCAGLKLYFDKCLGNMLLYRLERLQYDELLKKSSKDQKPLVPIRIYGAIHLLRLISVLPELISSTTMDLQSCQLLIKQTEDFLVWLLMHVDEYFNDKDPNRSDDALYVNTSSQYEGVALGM", "test": "pull-down; GST pull-down / affinity pull-down of Eaf3^MRG (wild type and mutants) with Rco1^PHD1–SID (wild type, mutants, truncation); which partner carried GST is not told"}, "[2]": {"biological_target": "T1, C-terminal MRG domain of Eaf3 …", "test": "ITC; SUMO–Eaf7^108–143 or SUMO alone with Eaf3^MRG or the Eaf3^MRG–Rco1^PHD1–SID complex", "details": "both partners purified"}, "[3]": {"biological_target": "B1", "test": "crystal structure; Eaf3^MRG–Rco1^PHD1–SID–H3K4me0^1–12 ternary complex, 1.60 Å", "details": "both partners purified"}, "Rco1^PHD1 alone": {"biological_target": "T2, Rco1^PHD1 alone (S. cerevisiae, Zn2+-bound PHD finger. Limits for PHD1 alone are not given; taken from the SID-deleted truncation Rco1 240-313 in the text, which covers PHD1 (zinc finger 260-309))", "T2 chain": "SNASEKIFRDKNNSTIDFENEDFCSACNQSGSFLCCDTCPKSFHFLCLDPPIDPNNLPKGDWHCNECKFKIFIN", "test": "ITC; H3 1–12 peptides with the Eaf3^MRG–Rco1^PHD1–SID complex or with Rco1^PHD1 alone", "details": "both partners purified"}}, "data": [{"binder": "B1", "values": [{"measurement": "binding result", "setting": "[1]", "result": "binds"}]}, {"binder": "B2", "values": [{"measurement": "Kd", "setting": "[2]", "result": 1, "unit": "µM"}]}, {"binder": "B3", "values": [{"measurement": "binding result", "setting": "[3]", "result": "binds"}, {"measurement": "Kd", "setting": "Rco1^PHD1 alone", "result": 110, "unit": "µM"}]}]}
